Measurements from US20240247080A1, “GLP1/GIP/NPY2 RECEPTOR TRIPLE AGONISTS” (Boehringer Ingelheim International GmbH, priority 2022, published 2024).
Where two headings read alike, the source gives them in different places. Values belong to the molecule of their own block, whether it stands above or below them. Starred links: 1 amine or outer side, 2 acyl side, 3 side chain; linkers in the order of their positions; H or OH if unused. Non-standard residues stand in square brackets, D forms with d. Groups on a side chain read outwards from the residue. No end group written: not given here. *: point of attachment. C20 diacid = O=C(O)CCCCCCCCCCCCCCCCCCC(=O)*; C18 diacid = O=C(O)CCCCCCCCCCCCCCCCC(=O)*; γGlu = O=C(O)[C@H](CCC(=O)[*:2])N[*:1]; AEEA = NCCOCCOCC(=O)O; Aib = CC(C)(N)C(=O)O; Ahx = NCCCCCC(=O)O

Tests used:
hGLP1R = target: T1, hGLP1R (Homo sapiens, UniProt P43220); assay: hGLP1R CreLuc reporter gene assay in 0.5% and 100% plasma; type: cell-based; conditions: CreLuc reporter gene assay
T1 construct: expressed in transfected cells; host or cells: HEK-293 cells carrying a CRE-luciferase reporter gene
Outline: (§1)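 HEK-293 cells co-expressing GLP-1 or NPY2 receptor and CHO cells expressing GIP receptor, each carrying a CRE-driven luciferase reporter, were stimulated with peptides for 4 hours at 37 °C. Luminescence was read after Bright-Glo addition. EC50 came from 8-point, four-decade curves fitted by variable-slope non-linear regression.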

hGIPR = target: T2, hGIPR (Homo sapiens, UniProt P48546); assay: hGIPR CreLuc reporter gene assay in 0.5% and 100% plasma; type: cell-based; conditions: CreLuc reporter gene assay
T2 construct: expressed in transfected cells; host or cells: CHO cells carrying a CRE-luciferase reporter gene
T2 sequence (P48546 22-466): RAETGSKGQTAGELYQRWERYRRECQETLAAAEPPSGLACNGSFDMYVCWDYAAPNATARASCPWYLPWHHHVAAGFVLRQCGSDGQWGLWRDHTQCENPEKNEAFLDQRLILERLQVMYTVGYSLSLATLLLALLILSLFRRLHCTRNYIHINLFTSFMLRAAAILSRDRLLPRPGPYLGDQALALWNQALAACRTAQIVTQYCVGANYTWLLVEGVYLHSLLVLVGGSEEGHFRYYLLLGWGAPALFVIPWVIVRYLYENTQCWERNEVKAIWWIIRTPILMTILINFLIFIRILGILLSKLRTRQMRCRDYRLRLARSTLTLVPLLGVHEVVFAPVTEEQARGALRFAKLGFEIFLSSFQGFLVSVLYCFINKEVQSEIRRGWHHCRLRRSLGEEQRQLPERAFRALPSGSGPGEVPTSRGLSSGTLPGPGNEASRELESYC
Outline: as §1

hNPY2R = target: T3, hNPY2R (Homo sapiens, UniProt P49146); assay: hNPY2R CreLuc reporter gene assay in 0.5% and 100% plasma; type: cell-based; conditions: CreLuc reporter gene assay
T3 construct: expressed in transfected cells; host or cells: HEK-293 cells carrying a CRE-luciferase reporter gene
T3 sequence (P49146 1-381): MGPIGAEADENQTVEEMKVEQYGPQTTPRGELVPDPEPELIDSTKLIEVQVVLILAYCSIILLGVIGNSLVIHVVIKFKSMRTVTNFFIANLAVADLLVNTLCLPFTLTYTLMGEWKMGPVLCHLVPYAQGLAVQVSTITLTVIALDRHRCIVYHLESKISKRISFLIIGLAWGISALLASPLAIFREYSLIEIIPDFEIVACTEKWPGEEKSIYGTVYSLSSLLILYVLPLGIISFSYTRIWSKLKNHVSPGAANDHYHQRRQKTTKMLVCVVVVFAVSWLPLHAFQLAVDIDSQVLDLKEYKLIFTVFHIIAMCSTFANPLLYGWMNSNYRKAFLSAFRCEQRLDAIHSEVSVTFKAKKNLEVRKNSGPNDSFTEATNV
Outline: as §1

[1] = Mouse PK after intravenous application; type: in vivo; conditions: plasma, mean residence time, intravenous 30-60 nmol/kg, male NMRI mice
Experimental: Pharmacokinetic parameters of the peptides were determined after intravenous application to NMRI mice. Male NMRI mice were obtained from Janvier Laboratories (France) weighing 30 to 40 g. Mice were housed in standard cages with a 12:12 hour light:dark cycle and standard food and water access ad libitum. Each test peptide was dissolved in 50 mM phosphate buffer (pH 7.4)/3.5% mannitol. Intravenous application of 30-60 nmol/kg was performed via the tail vein. Serial blood samples from conscious mice were collected from the saphenous vein in EDTA-containing vials at different time points up to 56 hours post-dosing. Subsequently, plasma was prepared by centrifugation for 5 min at approximately 5000 rpm and stored at −20° C. until quantification of the peptide plasma levels by liquid chromatography mass spectrometry (LC-MS). Individual plasma concentration—time profiles were analysed by a non-compartmental approach and the resulting pharmacokinetic parameters were calculated.

human GLP-1 receptor = human GLP-1 receptor (human, UniProt P43220 24-463); assay: cell-based or functional assay
human GIP receptor = target: T4, human GIP receptor (human, UniProt P48546 22-466); assay: cell-based or functional assay
T4 sequence (looked up): T2 sequence (P48546 22-466)

[2] = target: T5, human neuropeptide Y2 receptor (human, UniProt P49146 1-381); assay: cell-based or functional assay
T5 sequence (looked up): T3 sequence (P49146 1-381)

[3] = 0.5% human plasma, read-out: hGLP1R 0.5% hP
[4] = 0.5% human plasma, read-out: hGIPR 0.5% hP
[5] = 0.5% human plasma, read-out: hNPY2R 0.5% hP
[6] = 100% human plasma, read-out: hGIPR 100% hP

T1 sequence (P43220 24-463): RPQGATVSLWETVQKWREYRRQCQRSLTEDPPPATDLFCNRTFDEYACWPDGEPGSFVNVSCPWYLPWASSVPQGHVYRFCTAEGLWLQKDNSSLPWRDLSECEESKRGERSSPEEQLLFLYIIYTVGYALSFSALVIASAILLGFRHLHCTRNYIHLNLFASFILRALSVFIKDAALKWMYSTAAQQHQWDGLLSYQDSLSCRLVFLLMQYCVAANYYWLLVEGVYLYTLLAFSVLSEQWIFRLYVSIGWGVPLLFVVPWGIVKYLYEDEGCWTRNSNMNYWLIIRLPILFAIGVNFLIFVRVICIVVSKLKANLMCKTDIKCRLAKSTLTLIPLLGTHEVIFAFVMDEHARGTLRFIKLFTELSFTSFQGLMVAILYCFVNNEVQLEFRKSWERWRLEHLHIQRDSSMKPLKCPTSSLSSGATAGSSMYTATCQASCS

EC50 (hGLP1R; [3]): 0.18 nM | EC50 (hGLP1R; 100% human plasma, read-out: hGLP1R 100% hP): 4.39 nM | EC50 (hGIPR; [4]): 0.39 nM | EC50 (hNPY2R; [5]): 13.2 nM | MRT [1]: 8.8 h
Molecule: Y[Aib]EGTFTSDYSI[Aib]LEKQAQ[Aib]AFVQWLIK([γGlu-γGlu-γGlu-γGlu-γGlu-γGlu-C20 diacid])GGPSEGASLRHYYNWLTRQRY-NH2 [Compound 223, Y-Aib-E-G-T-F-T-S-D-Y-S-I-Aib-L-E-K-Q-A-Q-Aib-A-F-V-Q-W-L-I-K(1,3)-GGPSEGASLRHYYNWLTRQRY-NH2.C20DA-gGlu-gGlu-gGlu-gGlu-gGlu-gGlu(1,2)]

EC50 (hGLP1R; [3]): 0.1 nM | EC50 (hGIPR; [4]): 0.17 nM | EC50 (hGIPR; [6]): 1.11 nM | EC50 (hNPY2R; 100% human plasma, read-out: hNPY2R 100% hP): 21 nM | MRT [1]: 6.7 h
Molecule: CC[C@H](C)[C@H](NC(=O)[C@H](CC(C)C)NC(=O)[C@H](Cc1c[nH]c2ccccc12)NC(=O)[C@H](CCC(=O)O)NC(=O)[C@@H](NC(=O)[C@H](Cc1ccccc1)NC(=O)[C@H](C)NC(=O)C(C)(C)NC(=O)[C@H](CCC(N)=O)NC(=O)[C@H](C)NC(=O)[C@H](CCC(N)=O)NC(=O)[C@H](CCCCN)NC(=O)[C@H](CCC(=O)O)NC(=O)[C@H](CC(C)C)NC(=O)C(C)(C)NC(=O)[C@@H](NC(=O)[C@H](CO)NC(=O)[C@H](Cc1ccc(O)cc1)NC(=O)[C@H](CC(=O)O)NC(=O)[C@H](CO)NC(=O)[C@@H](NC(=O)[C@H](Cc1ccccc1)NC(=O)[C@@H](NC(=O)CNC(=O)[C@H](CCC(=O)O)NC(=O)C(C)(C)NC(=O)[C@@H](N)Cc1ccc(O)cc1)[C@@H](C)O)[C@@H](C)O)[C@@H](C)CC)C(C)C)C(=O)N[C@@H](CCCCNC(=O)[C@@H](N)CCCCNC(=O)CC[C@H](NC(=O)CC[C@H](NC(=O)CC[C@H](NC(=O)CC[C@H](NC(=O)CC[C@H](NC(=O)CC[C@H](NC(=O)CCCCCCCCCCCCCCCCCCC(=O)O)C(=O)O)C(=O)O)C(=O)O)C(=O)O)C(=O)O)C(=O)O)C(=O)NCC(=O)NCC(=O)N1CCC[C@H]1C(=O)N[C@@H](CO)C(=O)N[C@@H](CO)C(=O)NCC(=O)N[C@H](C(=O)N[C@@H](CO)C(=O)N[C@H](C(=O)N[C@@H](CCCNC(=N)N)C(=O)N[C@@H](Cc1c[nH]cn1)C(=O)N[C@@H](Cc1ccc(O)cc1)C(=O)N[C@@H](Cc1ccc(O)cc1)C(=O)N[C@@H](CC(N)=O)C(=O)N[C@@H](Cc1c[nH]c2ccccc12)C(=O)N[C@@H](CC(C)C)C(=O)N[C@H](C(=O)N[C@@H](CCCNC(=N)N)C(=O)N[C@@H](CCC(N)=O)C(=O)N[C@@H](CCCNC(=N)N)C(=O)N[C@@H](Cc1ccc(O)cc1)C(N)=O)[C@@H](C)O)[C@@H](C)CC)C(C)C [Compound 27, Y-Aib-E-G-T-F-T-S-D-Y-S-I-Aib-L-E-K-Q-A-Q-Aib-A-F-V-E-W-L-I-K(1,3)-GGPSSGVSIRHYYNWLTRQRY-NH2.C20DA-gGlu-gGlu-gGlu-gGlu-gGlu-gGlu-eLys(1,2)]

EC50 (hGLP1R; [3]): 0.51 nM | EC50 (hGIPR; [4]): 0.33 nM | EC50 (hGIPR; [6]): 0.8 nM | EC50 (hNPY2R; [5]): 18.8 nM | MRT [1]: 6.8 h
Molecule: Y[Aib]EGTFTSDYSI[Aib]LEKQAQ[Aib]EFVEWLIK([AEEA-AEEA-γGlu-γGlu-γGlu-C18 diacid])GGPSEGASLRHYYNWLTRQRY-NH2 [Compound 284, Y-Aib-E-G-T-F-T-S-D-Y-S-I-Aib-L-E-K-Q-A-Q-Aib-E-F-V-E-W-L-I-K(1,3)-GGPSEGASLRHYYNWLTRQRY-NH2.C18DA-gGlu-gGlu-gGlu-OEG-OEG(1,2)]

EC50 (hGLP1R; [3]): 0.07 nM | EC50 (hGIPR; [4]): 0.22 nM | EC50 (hGIPR; [6]): 1.04 nM | EC50 (hNPY2R; [5]): 18.3 nM | MRT [1]: 10 h
Molecule: H-Y[Aib]EGTFTSDYSI[Aib]LEKQAQ[Aib]AFVQWLIK([Ahx-γGlu-γGlu-γGlu-γGlu-γGlu-γGlu-C18 diacid])GGPSSGASLRHYYNWLTRQRY-NH2 [Compound 139, Y-Aib-E-G-T-F-T-S-D-Y-S-I-Aib-L-E-K-Q-A-Q-Aib-A-F-V-Q-W-L-I-K(1,3)-GGPSSGASLRHYYNWLTRQRY-NH2.C18DA-gGlu-gGlu-gGlu-gGlu-gGlu-gGlu-AHX(1,2)]

EC50 hGLP1R 0.5% hP (CreLuc) (human GLP-1 receptor): 0.15 nM | EC50 hGLP1R 100% hP (CreLuc) (human GLP-1 receptor): 6.05 nM | EC50 hGIPR 0.5% hP (CreLuc) (human GIP receptor): 0.33 nM | EC50 hGIPR 100% hP (CreLuc) (human GIP receptor): 3.87 nM | EC50 hNPY2R 0.5% hP (CreLuc) [2]: 31.9 nM | EC50 hNPY2R 100% hP (CreLuc) [2]: 173 nM
Molecule: Y[Aib]EGTFTSDYSI[Aib]LEKQAQ[Aib]AFVEWLIK([Glu-Glu-Glu-Glu-Glu-Glu-C18 diacid])GGPSEGASLRHYYNWLTRQRY-NH2 (also: TFA salt) [Compound 302]

EC50 hGLP1R 0.5% hP (CreLuc) (human GLP-1 receptor): 0.29 nM | EC50 hGLP1R 100% hP (CreLuc) (human GLP-1 receptor): 7.08 nM | EC50 hGIPR 0.5% hP (CreLuc) (human GIP receptor): 0.65 nM | EC50 hGIPR 100% hP (CreLuc) (human GIP receptor): 2.81 nM | EC50 hNPY2R 0.5% hP (CreLuc) [2]: 18.2 nM | EC50 hNPY2R 100% hP (CreLuc) [2]: 101 nM
Molecule: Y[Aib]EGTFTSDYSI[Aib]LEKQAQ[Aib]AFVEWLIK([γGlu-γGlu-γGlu-γGlu-γGlu-γGlu-C20 diacid])GGPSEGASLRHYYNWLTRQRY-NH2 (also: TFA salt) [Compound 305]

EC50 hGLP1R 0.5% hP (CreLuc) (human GLP-1 receptor): 0.2 nM | EC50 hGLP1R 100% hP (CreLuc) (human GLP-1 receptor): 4.42 nM | EC50 hGIPR 0.5% hP (CreLuc) (human GIP receptor): 0.36 nM | EC50 hGIPR 100% hP (CreLuc) (human GIP receptor): 2.36 nM | EC50 hNPY2R 0.5% hP (CreLuc) [2]: 33.3 nM | EC50 hNPY2R 100% hP (CreLuc) [2]: 122 nM
Molecule: Y[Aib]EGTFTSDYSI[Aib]LEKQAQ[Aib]AFVEWLIK([Ahx-γGlu-γGlu-γGlu-γGlu-γGlu-γGlu-C18 diacid])GGPSEGASLRHYYNWLTRQRY-NH2 (also: TFA salt) [Compound 303]

EC50 hGLP1R 0.5% hP (CreLuc) (human GLP-1 receptor): 0.35 nM | EC50 hGLP1R 100% hP (CreLuc) (human GLP-1 receptor): 10.3 nM | EC50 hGIPR 0.5% hP (CreLuc) (human GIP receptor): 0.23 nM | EC50 hGIPR 100% hP (CreLuc) (human GIP receptor): 2.35 nM | EC50 hNPY2R 0.5% hP (CreLuc) [2]: 35.7 nM | EC50 hNPY2R 100% hP (CreLuc) [2]: 114 nM
B1: Compound 304 (peptide)
peptide: YXEGTFTSDYSIXLEKQAQXAFVEWLIKGGPSEGASLRHYYNWLTRQRY
modifications: Aib at 2, 13, 20; K28 side chain acylated with C18DA-gGlu-gGlu-gGlu-gGlu-gGlu-AHX; C-terminal amide (NH2)
